The text below walks through data of US20090170750A1 (Novo Nordisk, published 2009).

In this assay the target is purified recombinant human insulin receptor-exon 11 (human) (UniProt P06213). Put plainly: competition with 125I-insulin (SPA).
Chain of purified recombinant human insulin receptor-exon 11 (human) (P06213 other isoform, or with tags, fused parts or gaps limits assumed, form in doubt): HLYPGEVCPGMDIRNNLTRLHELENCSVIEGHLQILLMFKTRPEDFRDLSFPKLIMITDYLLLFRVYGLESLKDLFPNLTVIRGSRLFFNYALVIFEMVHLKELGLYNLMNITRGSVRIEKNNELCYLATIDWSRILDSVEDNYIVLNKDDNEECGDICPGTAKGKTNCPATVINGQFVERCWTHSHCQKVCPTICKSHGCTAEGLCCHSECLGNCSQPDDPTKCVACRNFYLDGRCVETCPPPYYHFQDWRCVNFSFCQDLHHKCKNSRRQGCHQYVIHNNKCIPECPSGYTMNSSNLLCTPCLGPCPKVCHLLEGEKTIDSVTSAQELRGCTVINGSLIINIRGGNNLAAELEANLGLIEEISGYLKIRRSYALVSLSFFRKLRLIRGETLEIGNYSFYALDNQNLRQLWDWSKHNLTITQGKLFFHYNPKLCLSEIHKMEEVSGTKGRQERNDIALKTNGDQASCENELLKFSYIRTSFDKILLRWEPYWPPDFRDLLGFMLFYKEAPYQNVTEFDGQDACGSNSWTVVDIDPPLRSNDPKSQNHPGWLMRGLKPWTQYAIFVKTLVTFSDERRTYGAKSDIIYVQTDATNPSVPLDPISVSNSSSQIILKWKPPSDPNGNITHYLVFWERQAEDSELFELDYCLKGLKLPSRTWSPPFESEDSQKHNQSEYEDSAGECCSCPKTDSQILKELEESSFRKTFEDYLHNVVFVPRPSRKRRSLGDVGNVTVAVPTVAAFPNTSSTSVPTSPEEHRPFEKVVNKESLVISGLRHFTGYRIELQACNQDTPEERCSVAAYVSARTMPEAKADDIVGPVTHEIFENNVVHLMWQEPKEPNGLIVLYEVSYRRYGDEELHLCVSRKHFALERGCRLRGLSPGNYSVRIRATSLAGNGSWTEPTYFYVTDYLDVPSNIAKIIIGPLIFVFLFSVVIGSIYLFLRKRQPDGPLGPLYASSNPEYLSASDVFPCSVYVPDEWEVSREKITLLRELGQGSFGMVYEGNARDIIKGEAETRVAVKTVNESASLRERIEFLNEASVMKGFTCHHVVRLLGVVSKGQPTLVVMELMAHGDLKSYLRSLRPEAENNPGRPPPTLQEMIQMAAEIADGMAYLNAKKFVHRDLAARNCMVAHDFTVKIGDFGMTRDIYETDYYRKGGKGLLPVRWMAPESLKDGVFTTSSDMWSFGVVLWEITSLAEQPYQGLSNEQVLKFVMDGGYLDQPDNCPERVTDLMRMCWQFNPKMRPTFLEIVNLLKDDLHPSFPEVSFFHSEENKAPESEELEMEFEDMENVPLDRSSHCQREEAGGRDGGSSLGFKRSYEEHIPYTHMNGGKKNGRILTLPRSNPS
With “single-chain insulin PAK 1723, connecting peptide VGSSRGK [A21G] (from UniProt P01308 25-53; P01308 90-110) (ligand)”, the IR, binding relative to human insulin stood at 33%.

Take “single-chain insulin PAK 1733, connecting peptide VGSSSGK [A21G] (from UniProt P01308 25-53; P01308 90-110) (ligand)”: the IR, binding relative to human insulin was 42%.

“single-chain insulin PAK 1734, connecting peptide VGLSSGK [A21G] (from UniProt P01308 25-53; P01308 90-110) (ligand)”: the IR, binding relative to human insulin is 211%.

For “single-chain insulin PAK 1738, connecting peptide VGSSSGK [A18Q] (from UniProt P01308 25-53; P01308 90-110) (ligand)”, the IR, binding relative to human insulin came out at 89%.

With “single-chain insulin PAK 1740, connecting peptide VGSSSGK [B1G_B3Q_A18Q_A21G] (from UniProt P01308 25-53; P01308 90-110) (ligand)”, the IR, binding relative to human insulin was 90%.

On to “single-chain insulin PAK 1744, connecting peptide VGSSSGK [A18Q_A21G] (from UniProt P01308 25-53; P01308 90-110) (ligand)”, for which the IR, binding relative to human insulin came out at 80%.

For the substance “single-chain insulin PAK 1762, connecting peptide AGMGSGP [A18Q_A21G] (from UniProt P01308 25-53; P01308 90-110) (ligand)”, the IR, binding relative to human insulin is 20%.

Consider “single-chain insulin PAK 1764, connecting peptide AGLGSGK [A18Q_A21G] (from UniProt P01308 25-53; P01308 90-110) (ligand)”, for which the IR, binding relative to human insulin was found to be 120%.

For the substance “single-chain insulin PAK 1767, connecting peptide AGRGSGP [A18Q_A21G] (from UniProt P01308 25-53; P01308 90-110) (ligand)”, the IR, binding relative to human insulin was found to be 28%.

For the substance “single-chain insulin PAK 1784, connecting peptide WASGSGK [A18Q_A21G] (from UniProt P01308 25-53; P01308 90-110) (ligand)”, the IR, binding relative to human insulin is 23%.

“single-chain insulin PAK 1785, connecting peptide ASWGSGK [A18Q_A21G] (from UniProt P01308 25-53; P01308 90-110) (ligand)”: the IR, binding relative to human insulin came out at 136%.

As for “single-chain insulin PAK 1787, connecting peptide VGLSSGQ [A18Q_A21G] (from UniProt P01308 25-53; P01308 90-110) (ligand)”, the IR, binding relative to human insulin was 123%.

Consider “single-chain insulin PAK 1788, connecting peptide VGLYSGK [A18Q_A21G] (from UniProt P01308 25-53; P01308 90-110) (ligand)”, for which the IR, binding relative to human insulin was found to be 323%.

On to “single-chain insulin PAK 1789, connecting peptide VGLRSGK [A18Q_A21G] (from UniProt P01308 25-53; P01308 90-110) (ligand)”, for which the IR, binding relative to human insulin was 248%.

“single-chain insulin PAK 1790, connecting peptide VGLMSGK [A18Q_A21G] (from UniProt P01308 25-53; P01308 90-110) (ligand)”: the IR, binding relative to human insulin turned out to be 261%.

Consider “single-chain insulin PAK 1791, connecting peptide HGLYSGK [A18Q_A21G] (from UniProt P01308 25-53; P01308 90-110) (ligand)”, for which the IR, binding relative to human insulin is 226%.

On to “single-chain insulin PAK 1796, connecting peptide AWSGSGK [A18Q_A21G] (from UniProt P01308 25-53; P01308 90-110) (ligand)”, for which the IR, binding relative to human insulin amounted to 102%.

Consider “single-chain insulin PAK 1800, connecting peptide AGRGSGK [A18Q_A21G] (from UniProt P01308 25-53; P01308 90-110) (ligand)”, for which the IR, binding relative to human insulin was found to be 175%.

“single-chain insulin PAK 1802, connecting peptide AGRGK [A18Q_A21G] (from UniProt P01308 25-53; P01308 90-110) (ligand)”: the IR, binding relative to human insulin came out at 25%.

Regarding “single-chain insulin PAK 1805, connecting peptide AGRGSGK [B3Q_A18Q_A21G] (from UniProt P01308 25-53; P01308 90-110) (ligand)”, the IR, binding relative to human insulin is 83%.

Consider “single-chain insulin PAK 1808, connecting peptide AGRGSGK [B1G_B3Q_A18Q_A21G] (from UniProt P01308 25-53; P01308 90-110) (ligand)”, for which the IR, binding relative to human insulin worked out at 86%.

Take “single-chain insulin PAK 1810, connecting peptide TGLGSGQ [A18Q_A21G] (from UniProt P01308 25-53; P01308 90-110) (ligand)”: the IR, binding relative to human insulin came out at 73%.

Consider “single-chain insulin PAK 1811, connecting peptide TGLGSGK [A18Q_A21G] (from UniProt P01308 25-53; P01308 90-110) (ligand)”, for which the IR, binding relative to human insulin worked out at 136%.

For the substance “single-chain insulin PAK 1812, connecting peptide TGLGRGK [A18Q_A21G] (from UniProt P01308 25-53; P01308 90-110) (ligand)”, the IR, binding relative to human insulin came out at 118%.

On to “single-chain insulin PAK 1816, connecting peptide AGLGSGQ [B3Q_A18Q] (from UniProt P01308 25-53; P01308 90-110) (ligand)”, for which the IR, binding relative to human insulin was found to be 37%.

As for “single-chain insulin PAK 1817, connecting peptide AGRGSGK [A21G] (from UniProt P01308 25-53; P01308 90-110) (ligand)”, the IR, binding relative to human insulin turned out to be 63%.

As for “single-chain insulin PAK 1818, connecting peptide KGLGSGQ [B3Q_B29R_A18Q_A21G] (from UniProt P01308 25-53; P01308 90-110) (ligand)”, the IR, binding relative to human insulin worked out at 125%.

For the substance “single-chain insulin PAK 1821, connecting peptide TGLGSGK [B3Q_B29R_A18Q_A21G] (from UniProt P01308 25-53; P01308 90-110) (ligand)”, the IR, binding relative to human insulin is 128%.

For “single-chain insulin PAK 1824, connecting peptide GRGSGK [B1G_B3Q_A18Q_A21G] (from UniProt P01308 25-53; P01308 90-110) (ligand)”, the IR, binding relative to human insulin is 75%.

As to “single-chain insulin PAK 1835, connecting peptide TGLGKGQ [B29E_A18Q] (from UniProt P01308 25-53; P01308 90-110) (ligand)”, the IR, binding relative to human insulin stood at 50%.

On to “single-chain insulin PAK 1838, connecting peptide TGLGKGQ [B29R_A18Q] (from UniProt P01308 25-53; P01308 90-110) (ligand)”, for which the IR, binding relative to human insulin stood at 113%.

For the substance “single-chain insulin PAK 1846, connecting peptide TGLGKGR [B29A_A18Q] (from UniProt P01308 25-53; P01308 90-110) (ligand)”, the IR, binding relative to human insulin was 92%.

“single-chain insulin PAK 1847, connecting peptide TGLGKGR [B27E_B29A_A18Q] (from UniProt P01308 25-53; P01308 90-110) (ligand)”: the IR, binding relative to human insulin was determined as 82%.

Regarding “single-chain insulin PAK 1848, connecting peptide TGLGKGR [B27E_B29E_A18Q] (from UniProt P01308 25-53; P01308 90-110) (ligand)”, the IR, binding relative to human insulin was found to be 40%.

As to “single-chain insulin PAK 1849, connecting peptide TGLGKGR [B29E_A18Q] (from UniProt P01308 25-53; P01308 90-110) (ligand)”, the IR, binding relative to human insulin stood at 60%.

Turning to “single-chain insulin PAK 1854, connecting peptide VGLYSGK [B29E_A18Q] (from UniProt P01308 25-53; P01308 90-110) (ligand)”, the IR, binding relative to human insulin worked out at 40%.

As for “single-chain insulin PAK 1855, connecting peptide VGLYSGK [B28D_A18Q] (from UniProt P01308 25-53; P01308 90-110) (ligand)”, the IR, binding relative to human insulin is 221%.

Consider “single-chain insulin PAK 1860, connecting peptide VGSSSGK [B3K_A18Q_A21G] (from UniProt P01308 25-53; P01308 90-110) (ligand)”, for which the IR, binding relative to human insulin was determined as 83%.

Consider “single-chain insulin PAK 1864, connecting peptide TGLGSGK [B3K_A18Q_A21G] (from UniProt P01308 25-53; P01308 90-110) (ligand)”, for which the IR, binding relative to human insulin is 301%.

Turning to “single-chain insulin PAK 1866, connecting peptide VGLSSGQ [A18Q] (from UniProt P01308 25-53; P01308 90-110) (ligand)”, the IR, binding relative to human insulin came out at 196%.

As for “single-chain insulin PAK 1869, connecting peptide VGLSSGQ [B22K_B29A_A18Q] (from UniProt P01308 25-53; P01308 90-110) (ligand)”, the IR, binding relative to human insulin worked out at 69%.

On to “single-chain insulin PAK 1871, connecting peptide VGLSSGQ [B29A_A18K] (from UniProt P01308 25-53; P01308 90-110) (ligand)”, for which the IR, binding relative to human insulin turned out to be 82%.

On to “single-chain insulin PAK 1875, connecting peptide VGLSSGQ [B28K_B29A_A18Q] (from UniProt P01308 25-53; P01308 90-110) (ligand)”, for which the IR, binding relative to human insulin was 35%.
